What was measured:
[1] = target: T1, peroxiredoxin 2 (mouse (endogenous in 3T3-L1 adipocytes)), Q61171; experiment: non-reducing SDS-PAGE with immunoblot; adipocytes treated with BCNU or BCNU/AF for 2 or 24 h; washed and scraped in PBS with 100 mM NEM, 1% SDS; non-reducing SDS-PAGE, immunoblot; dimer/monomer ratio measured; details: remark: other sources report otherwise
T1 chain: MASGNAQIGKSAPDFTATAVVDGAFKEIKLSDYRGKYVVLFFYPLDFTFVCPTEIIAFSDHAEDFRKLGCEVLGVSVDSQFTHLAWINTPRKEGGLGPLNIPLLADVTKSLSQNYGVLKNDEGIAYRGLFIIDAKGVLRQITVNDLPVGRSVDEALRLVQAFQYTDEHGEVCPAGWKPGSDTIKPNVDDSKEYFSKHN

[2] = target: the molecule itself; experiment: as above

Binder	stoichiometry N [1]	stoichiometry N [2]
peroxiredoxin 2, Q61171 1-198 (natural protein) MASGNAQIGKSAPDFTATAVVDGAFKEIKLSDYRGKYVVLFFYPLDFTFVCPTEIIAFSDHAEDFRKLGCEVLGVSVDSQFTHLAWINTPRKEGGLGPLNIPLLADVTKSLSQNYGVLKNDEGIAYRGLFIIDAKGVLRQITVNDLPVGRSVDEALRLVQAFQYTDEHGEVCPAGWKPGSDTIKPNVDDSKEYFSKHN	2	
peroxiredoxin 3 (natural protein, mouse (endogenous in 3T3-L1 adipocytes), UniProt P20108 63-257, looked up, peroxiredoxin 3 (Prdx3), mitochondrial, endogenous in 3T3-L1 adipocytes, detected with anti-PRDX3; The dimer seen on the non-reducing gel is held by a disulfide bond formed on oxidation; also called Prdx3; PRDX3; source: endogenous, 3T3-L1 adipocyte lysate) TPAVTQHAPYFKGTAVVNGEFKELSLDDFKGKYLVLFFYPLDFTFVCPTEIVAFSDKANEFHDVNCEVVAVSVDSHFSHLAWINTPRKNGGLGHMNITLLSDITKQISRDYGVLLESAGIALRGLFIIDPNGVVKHLSVNDLPVGRSVEETLRLVKAFQFVETHGEVCPANWTPESPTIKPSPTASKEYFEKVHQ		2
